# System: MS2 coat protein
# Assay: apparent KD of MS2 coat protein; designed switch direction (-1 OFF switch, 1 ON switch): -1; higher = weaker reporter binding
# Summary of the method: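 Stalled E. coli RNA polymerase transcribed designed RNA switches on Illumina chips, which were then titrated with SNAP-549-labelled MS2 coat protein, doubling from 0.7 or 1.5 nM to 3 µM. Steps lasted from 0.8–1.5 h at the lowest concentration to 10–20 min at the highest. The apparent KD is each design's median over clusters of curve-fitted normalised fluorescence.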
# [1] = input ligand: microRNA oligo, concentration not stated
# [2] = Eterna round: R95, input ligand: microRNA oligo, concentration not stated
# [3] = Eterna round: R95, input ligand: FMN 200 uM
# [4] = Eterna round: R95, input ligand: none
Sequence,apparent KD of MS2 coat protein (input ligand: FMN 200 uM) [nM],apparent KD of MS2 coat protein (input ligand: none) [nM],apparent KD of MS2 coat protein [2] [nM],further results
"GGGUGCAGGCUGAGGUCCUACAUGAGGAUCACCCAUGUGGUCCGGUGACGUGAGUCGCCGGACUUGGCUCGUCUUGU [salish99_S_TOV1_R5_011] (Eterna round: R97, puzzle: Sensor, turn-off variant 1)",42.2,52.1,,
"GGGUGUGAAGGAUAUACAUGAGGAUCACCCAUGUGAGAGGAGAAUGUUGAGGAGGUUGGUAGAAGGUCAGGAGG [JR_Exclusion3_Sub010] (Eterna round: R96, puzzle: Exclusion 3)",202,165,,apparent KD of MS2 coat protein [1]: 105 nM
GGGUGUGAAGGAUAUACAUGAGGAUCACCCAUGUGAGAGGAGAAUGUUGAGGAGGUUGGUAGAAGGUCAGGAGG [JR_Exclusion3_Sub010] (puzzle: Exclusion 3),,,79.1,
"GGGUGUGAAGGAUAUACAUGAGGAUCACCCAUGUGAGAGGAGGAGGUUGAGGAGGUUGGUAGAAGGUCAGGAGG [JR_Exclusion3_Sub011] (Eterna round: R96, puzzle: Exclusion 3)",219,220,,apparent KD of MS2 coat protein [1]: 149 nM
GGGUGUGAAGGAUAUACAUGAGGAUCACCCAUGUGAGAGGAGGAGGUUGAGGAGGUUGGUAGAAGGUCAGGAGG [JR_Exclusion3_Sub011] (puzzle: Exclusion 3),,,120,
"GGUACUAACACGAAAGUGUUAGUACAAUAAGCUAGUGGAACAUGAGGAUCACCCAUGUCCUCAUUAGCUCGUCUUAU [Mat - Sensor v3 - Turn-off var 2 - D36] (puzzle: Sensor v3, turn-off variant 2)",,,43.8,apparent KD of MS2 coat protein [3]: 14.5 nM; apparent KD of MS2 coat protein [4]: 15 nM
"GGUACUAACACGAAAGUGUUAGUACUAUAAGCUUGUGUUACAUGAGGAUCACCCAUGUCCUCAUAGGCUCGUCUUAU [JL-sv3-2.18 mat747 mod] (puzzle: Sensor v3, turn-off variant 2)",,,29.9,apparent KD of MS2 coat protein [3]: 292 nM; apparent KD of MS2 coat protein [4]: 252 nM
"GGUACUAACACGAGAGUGUUAGUACUAUAAGCUUGUGUUACAUGAGGAUCACCCAUGUCCUCAUAAGCUCGUCUUGA [Mat - Sensor v3 - Turn-off var 2 - D90] (puzzle: Sensor v3, turn-off variant 2)",,,974,apparent KD of MS2 coat protein [3]: 33 nM; apparent KD of MS2 coat protein [4]: 36.2 nM
"GGUACUAACACGAUAGUGUUAGUACUAUAAGCUUGUGUUACAUGAGGAUCACCCAUGUCCUCAUAAGCUCGUCUUGU [Mat - Sensor v3 - Turn-off var 2 - D89] (puzzle: Sensor v3, turn-off variant 2)",,,52.9,apparent KD of MS2 coat protein [3]: 49.8 nM; apparent KD of MS2 coat protein [4]: 44.8 nM
"GGUCAGACGGUAGGAUAUCCAUAUCGAGUGACUCUUUCAUAACAUGAGGAUCACCCAUGUCGGUGGGAGAAGGGCCGUACGGCG [salish99_ExNG02_R04_005] (Eterna round: R96, puzzle: Exclusion NG 2)",61.5,42.7,,apparent KD of MS2 coat protein [1]: 29.6 nM
"GGUCAGAUGGUAGGAUAUCCAUAUCGAGUGACCCUUUCAUAACAUGAGGAUCACCCAUGUCGGUGGGAGAAGGGCCGUACGGUG [salish99_ExNG02_R04_023] (Eterna round: R96, puzzle: Exclusion NG 2)",39.5,48.8,,apparent KD of MS2 coat protein [1]: 41.2 nM
"GGUCAGAUGGUAGGAUAUCCAUAUCGAGUGACCCUUUCAUAACAUGAGGAUCACCCAUGUCGGUGGGAGAAGGGCUGUACGGCG [salish99_ExNG02_R04_021] (Eterna round: R96, puzzle: Exclusion NG 2)",34.8,43.3,,apparent KD of MS2 coat protein [1]: 19.1 nM
"GGUCAUCAAGUCAGGAUAUCGUCAAAUCAAUCAGGCGAGAAGGGACAUGAGGAUCACCCAUGUCGACUCAUCAG [Ex4 #5] (Eterna round: R97, puzzle: Brourd's mod of Exclusion 4)",123,34.3,,
GGUCCACAUGAGGAUCACCCAUGUUAGGAUAUCUCCCGCCUCCUCACUAGAGGCGGACAGAGAAGGAACAUCAA [Raerge] (puzzle: Exclusion 1),,,23.2,
GGUCCUCCGGAGGAUAUGGAACUGGAGGUAGUACCAGAAGGCCGAACAUGAGGAUCACCCAUGUGCCCGUAAAA [Aarlean] (puzzle: Exclusion 6),,,17,apparent KD of MS2 coat protein [3]: 76.8 nM; apparent KD of MS2 coat protein [4]: 18.5 nM
"GGUCGGCGAGGAUAUACAUGAGGAUCACCCAUGUGAUAGAUUGCUUCGUGAGAAGUAUGUAGAAGGCGCUGACG [jl-ex3-4.04 jl mod] (Eterna round: R97, puzzle: Exclusion 3)",320,38.7,,

Sequence,apparent KD of MS2 coat protein (input ligand: FMN 200 uM) [nM],apparent KD of MS2 coat protein (input ligand: none) [nM],apparent KD of MS2 coat protein [2] [nM],further results
"GGUCGGGCAAAGGAUGCCCACAUGAGGAUCACCCAUGUACAAGACUUUAAGGUGCGUAAGCGCAUACGGCUCGUUAA [Eternabot (L1) Solution 26] (Eterna round: R97, puzzle: Sensor, turn-off variant 1)",15.9,16.5,,
"GGUCGUCAAGUCAGGAUAUCGUUUGGUCGGUGUGACGAGAAGGGACAUGAGGAUCACCCAUGUCGUCUCAUCAG [Ex4 #29] (Eterna round: R97, puzzle: Brourd's mod of Exclusion 4)",31,30.8,,
"GGUCUACAUGAGGAUCACCCAUGUAAGGAUAUCGUCACUGGAGCCUCGGCUCCAGUGACGAGAAGGUACGUAAU [E1/12-A2] (Eterna round: R97, puzzle: Exclusion 1)",31.5,34.5,,
"GGUCUUCAAGUCAGGAUAUCGUCUAAUCGAUCUGGCGAGAAGGGACAUGAGGAUCACCCAUGUCGUCUCAUCAG [Ex4 #16] (Eterna round: R97, puzzle: Brourd's mod of Exclusion 4)",22.7,17.7,,
"GGUGAAGCAGGAUAUGUAUCGAUAUACAUGAGGAUCACCCAUGUCAUGUAGAAACCGCAUAUAGAAGGGCUUCACC [Exclusion 5 (FMN-MS2 slide v.6)] (Eterna round: R97, puzzle: Exclusion 5)",163,47.4,,
GGUGAGAGCAAGGAUAUGCAGAAGUGAGAAAGUGCAGAAGGUGCUACAUGAGGAUCACCCAUGUUGGAUGUGUU [JR_E6_Sub015] (puzzle: Exclusion 6),,,34.2,
GGUGCGUAUGUGAGGAUAUGCUGGUCCUUGGAUCGGCAGAAGGUACAUGAGGAUCACCCAUGUGGUGUCGUUCU [salish99_Bmod_ex4_105] (puzzle: Brourd's mod of Exclusion 4),,,232,
GGUGCGUCUGUGAGGAUAUGCUGGUCCUUGGAUCAGCAGAAGGCACAUGAGGAUCACCCAUGUGGUGUCGUACC [salish99_Bmod_Ex4_028] (puzzle: Brourd's mod of Exclusion 4),,,143,
"GGUGCUGGCGCGUCGGUGUUGGUGCAAUAAGCUUGUGAAACAUGAGGAUCACCCAUGUCCUCAUAAGCUCGUCUUAU [salish99_TOv2_r2_086] (Eterna round: R96, puzzle: Sensor v3, turn-off variant 2)",13.7,17.7,,apparent KD of MS2 coat protein [1]: 334 nM
"GGUGCUGGCGCGUCGGUGUUGGUGCAAUAAGCUUGUGAAACAUGAGGAUCACCCAUGUCCUCAUAAGCUCGUCUUAU [salish99_TOv2_r2_086] (puzzle: Sensor v3, turn-off variant 2)",,,529,apparent KD of MS2 coat protein [3]: 17.7 nM; apparent KD of MS2 coat protein [4]: 15.9 nM
GGUGGACAUGAGGAUCACCCAUGUGAGGAUAUCGGCCGGCUAGUGGCGGCUGGCUUCACGAGAAGGCGCAUAGU [Exclusion 1 V78] (puzzle: Exclusion 1),,,65.4,
GGUGGACAUGAGGAUCACCCAUGUGAGGAUAUCGGCCGGUUCGUGGUGGCUGGCCUCUCGAGAAGGCGCAUAGU [Exclusion 1 V73] (puzzle: Exclusion 1),,,44.1,
GGUGGACAUGAGGAUCACCCAUGUGAGGAUAUCGGCCGGUUCGUGGUGGCUGGCGUCUCGAGAAGGCGCAUAGU [Exclusion 1 V70] (puzzle: Exclusion 1),,,28.6,
GGUGGACAUGAGGAUCACCCAUGUGAGGAUAUCGGCUAUCUACUCGCUGUCGGUUGCUCGAGAAGGCACAUUGU [Exclusion 1 V93] (puzzle: Exclusion 1),,,151,
GGUGGACAUGAGGAUCACCCAUGUGAGGAUAUCGGCUGGCUAGUGGCUGACGGCUGCUCGAGAAGGCGCAUUGU [Exclusion 1 V86] (puzzle: Exclusion 1),,,54.7,
"GGUGUGAGGCAGGAUAUGCUAUAUGUUAGUAAUGCAGAAGGGUCUACAUGAGGAUCACCCAUGUGUGCGGUAGA [Ex6 #4] (Eterna round: R97, puzzle: Exclusion 6)",345,139,,

# From the supplement of paper PMC9170038
